{"source": "paper PMC6214620", "origin": "cited, not measured here", "tested_on": "Lys53", "details": "ferric; His-Fe-Lys converting to a water-bound, lysine-deligated state", "data": [{"substance": "Truncated hemoglobin THB1 (Chlamydomonas reinhardtii)", "values": [{"measurement": "pKa", "result": "~ 6.5"}]}]}
